Source: patent US20250135046A1, “CHOLECYSTOKININ B RECEPTOR-TARGETED COMPLEX AND A CONTRAST AGENT THEREOF” (National Atomic Research Institute, priority 2023, published 2025)
Square brackets hold non-standard residues; d marks the D form. Peptide text beside a SMILES is read from it. * marks the point of attachment. DOTA = O=C(O)CN1CCN(CC(=O)O)CCN(CC(=O)*)CCN(CC(=O)O)CC1; Butanoyl(4-(4-MePh)) = Cc1ccc(CCCC(=O)*)cc1; 4Amb = NCc1ccc(C(=O)O)cc1; Nle = CCCC[C@H](N)C(=O)O; Ahx = NCCCCCC(=O)O

System: tumor site where the cholecystokinin B receptor is overexpressed
Parameters: species or system nude mice
Settings: mouse, in vivo
Procedure: Establishment of tumor animal model: Five-to six-week-old male experimental nude mice are purchased from the National Laboratory Animal Center (NLAC, TAIWAN) and bred in the animal facility. All animal experiment procedures are performed in accordance with the protocols approved by Institutional Animal Care and Use Committee (IACUC, TAIWAN). The experimental mice are kept at a temperature of 21-23° C., and a 12-hour light-dark cycle are used as the basis for the animal's physiological cycle. A431-CCK2R^(−) and A431-CCK2R^(+) cells (2×10^6 cells) are inoculated in the left and right hind limbs of the mice. After the tumors growing to 200-300 mm^3, the radioactive labeled complexes Lu-177-D1, Lu-177-D2, and Lu-177-D3 are used as radiotherapy drugs and start the treatments. The cholecystokinin B receptor-targeted radiotherapy drugs […], Lu-177-D2, and Lu-177-D3 are administrated to the mice respectively by tail vein injection. After different time periods of administration, such as 4, 24, and 48 hours, the coronal sections of three tumor mice are obtained (Refer to FIG. 3). By showing the comparison of NanoSPECT and CT fusion images at different time points, the accumulation of these radiotherapy drugs in the tumor tissue can be observed. Then measure and record the tumor size twice a week. […]

Compound | duration of drug accumulation in the tumor site
CCCC[C@H](NC(=O)[C@H](Cc1c[nH]c2ccccc12)NC(=O)CNC(=O)[C@H](Cc1ccc(O)cc1)NC(=O)[C@H](C)NC(=O)[C@H](CCC(=O)O)NC(=O)[C@H](CCC(=O)O)NC(=O)[C@H](CCC(=O)O)NC(=O)[C@H](CCC(=O)O)NC(=O)[C@H](CCC(=O)O)NC(=O)[C@H](CCC(=O)O)NC(=O)CCCCCNC(=O)[C@H](CCCCNC(=O)CCCc1ccc(C)cc1)NC(=O)CN1CCN(CC(=O)O)CCN(CC(=O)O)CCN(CC(=O)O)CC1)C(=O)N[C@@H](CC(=O)O)C(=O)N[C@@H](Cc1ccccc1)C(N)=O [Lu-177-D1, metal not drawn] ({DOTA}-K(Butanoyl(4-(4-MePh)))[Ahx]EEEEEEAYGW[Nle]DF-NH2) | at least 48 hours
CCCC[C@H](NC(=O)[C@H](Cc1c[nH]c2ccccc12)NC(=O)CNC(=O)[C@H](Cc1ccc(O)cc1)NC(=O)[C@H](C)NC(=O)[C@H](CCC(=O)O)NC(=O)[C@H](CCC(=O)O)NC(=O)[C@H](CCC(=O)O)NC(=O)[C@H](CCC(=O)O)NC(=O)[C@H](CCC(=O)O)NC(=O)[C@H](CCC(=O)O)NC(=O)c1ccc(CNC(=O)[C@H](CCCCNC(=O)CCCc2ccc(C)cc2)NC(=O)CN2CCN(CC(=O)O)CCN(CC(=O)O)CCN(CC(=O)O)CC2)cc1)C(=O)N[C@@H](CC(=O)O)C(=O)N[C@@H](Cc1ccccc1)C(N)=O [Lu-177-D3, metal not drawn] ({DOTA}-K(Butanoyl(4-(4-MePh)))[4Amb]EEEEEEAYGW[Nle]DF-NH2) | at least 48 hours
